Experimental data as given in patent US20150376271 (published 2015).
Values joined by “and” are separate entries in the source; they are usually repeats but may differ in a detail not shown here. Equal values may be shown once. Read-outs that look alike come from different tables or passages of the source.

T1: PDGF-BB (human, UniProt P01127)
T1 chain: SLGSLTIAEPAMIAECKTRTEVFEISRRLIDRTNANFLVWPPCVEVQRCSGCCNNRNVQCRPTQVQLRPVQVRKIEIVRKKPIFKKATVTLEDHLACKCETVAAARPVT

T2: VEGFA-165 (human, UniProt P15692)
T2 chain: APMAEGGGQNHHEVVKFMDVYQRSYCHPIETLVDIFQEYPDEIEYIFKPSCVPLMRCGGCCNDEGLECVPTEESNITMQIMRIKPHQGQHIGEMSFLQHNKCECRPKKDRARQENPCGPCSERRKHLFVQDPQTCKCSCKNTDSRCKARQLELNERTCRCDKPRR

T3: VEGF121 (human, UniProt P15692)
T3 chain: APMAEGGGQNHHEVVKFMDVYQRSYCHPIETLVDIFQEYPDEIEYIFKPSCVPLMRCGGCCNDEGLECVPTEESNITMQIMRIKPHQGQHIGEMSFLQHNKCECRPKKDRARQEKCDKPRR


Tests used:
PDGF-BB = molecular target: T1, PDGF-BB; test: SPR, 25C
VEGFA-165 [1] = molecular target: T2, VEGFA-165; test: competition
VEGFA-165 [2] = molecular target: T2, VEGFA-165; test: SPR
VEGFA-165 [3] = molecular target: T2, VEGFA-165; test: competition
VEGF121 [4] = molecular target: T3, VEGF121; test: SPR
VEGF121 [5] = molecular target: T3, VEGF121; test: SPR

IC50 (VEGFA-165 [1]) [nM] | Kd (VEGFA-165 [2]) [nM] | Kd (VEGF121 [4]) [nM] | Kd (VEGF121 [5]) | Binder | other results
 |  | 0.231 | 0.28 nM and 0.182 nM | TAF347 (antibody) chain 1: LVVTPPGPELVLNVSSTFVLTCSGSAPVVWERMSQEPPQEMAKAQDGTFSSVLTLTNLTGLDTGEYFCTHNDSRGLETDERKRLYIFVPDPTVGFLPNDAEELFIFLTEITEITIPCRVTDPQLVVTLHEKKGDVALPVPYDHQRGFSGIFEDRSYICKTTIGDREVDSDAYYVYRLQVSSINVSVNAVQTVVRQGENITLMCIVIGNEVVNFEWTYPRKESGRLVEPVTDFLLDMPYHIRSILHIPSAELEDSGTYTCNVTESVNDHQDEKAINITVVESGGGGGSGGGGSEVQLVESGGGLVQPGGSLRLSCAASGYDFTHYGMNWVRQAPGKGLEWVGWINTYTGEPTYAADFKRRFTFSLDTSKSTAYLQMNSLRAEDTAVYYCAKYPYYYGTSHWYFDVWGQGTLVTVSSASTKGPSVFPLAPSSKSTSGGTAALGCLVKDYFPEPVTVSWNSGALTSGVHTFPAVLQSSGLYSLSSVVTVPSSSLGTQTYICNVNHKPSNTKVDKKVEPKSCDKTHTCPPCPAPEAAGAPSVFLFPPKPKDTLMISRTPEVTCVVVDVSHEDPEVKFNWYVDGVEVHNAKTKPREEQYNSTYRVVSVLTVLHQDWLNGKEYKCKVSNKALPAPIEKTISKAKGQPREPCVYTLPPSREEMTKNQVSLTCLVKGFYPSDIAVEWESNGQPENNYKTTPPVLDSDGSFFLYSKLTVDKSRWQQGNVFSCSVMHEALHNHYTQKSLSLSPGK chain 2: not shown | 
 |  | 0.225 | 0.23 nM and 0.219 nM | TAF443 (antibody) chain 1: LVVTPPGPELVLNVSSTFVLTCSGSAPVVWERMSQEPPQEMAKAQDGTFSSVLTLTNLTGLDTGEYFCTHNDSRGLETDERKRLYIFVPDPTVGFLPNDAEELFIFLTEITEITIPCRVTDPQLVVTLHEKKGDVALPVPYDHQRGFSGIFEDRSYICKTTIGDREVDSDAYYVYRLQVSSINVSVNAVQTVVRQGENITLMCIVIGNEVVNFEWTYPRKESGRLVEPVTDFLLDMPYHIRSILHIPSAELEDSGTYTCNVTESVNDHQDEKAINITVVESGGGGGSGGGGSEVQLVESGGGLVQPGGSLRLSCAASGYDFTHYGMNWVRQAPGKGLEWVGWINTYTGEPTYAADFKRRFTFSLDTSKSTAYLQMNSLRAEDTAVYYCAKYPYYYGTSHWYFDVWGQGTLVTVSSASTKGPSVFPLAPSSKSTSGGTAALGCLVKDYFPEPVTVSWNSGALTSGVHTFPAVLQSSGLYSLSSVVTVPSSSLGTQTYICNVNHKPSNTKVDKKVEPKSCDKTHTCPPCPAPEAAGAPSVFLFPPKPKDTLMISRTPEVTCVVVDVSHEDPEVKFNWYVDGVEVHNAKTKPREEQYNSTYRVVSVLTVLHQDWLNGKEYKCKVSNKALPAPIEKTISKAKGQPREPQVYTLPPSREEMTKNQVSLTCLVKGFYPSDIAVEWESNGQPENNYKTTPPVLDSDGSFFLYSKLTVDKSRWQQGNVFSCSVMHEALHNHYTQKSLSCSPGK chain 2: not shown | 

Second part, the binder before the results:

Binder | IC50 (VEGFA-165 [1]) [nM] | Kd (VEGFA-165 [2]) [nM] | Kd (VEGF121 [4]) [nM] | Kd (VEGF121 [5]) | other results
OG1321 (antibody, TAF443 protein, unconjugated) chain 1: LVVTPPGPELVLNVSSTFVLTCSGSAPVVWERMSQEPPQEMAKAQDGTFSSVLTLTNLTGLDTGEYFCTHNDSRGLETDERKRLYIFVPDPTVGFLPNDAEELFIFLTEITEITIPCRVTDPQLVVTLHEKKGDVALPVPYDHQRGFSGIFEDRSYICKTTIGDREVDSDAYYVYRLQVSSINVSVNAVQTVVRQGENITLMCIVIGNEVVNFEWTYPRKESGRLVEPVTDFLLDMPYHIRSILHIPSAELEDSGTYTCNVTESVNDHQDEKAINITVVESGGGGGSGGGGSEVQLVESGGGLVQPGGSLRLSCAASGYDFTHYGMNWVRQAPGKGLEWVGWINTYTGEPTYAADFKRRFTFSLDTSKSTAYLQMNSLRAEDTAVYYCAKYPYYYGTSHWYFDVWGQGTLVTVSSASTKGPSVFPLAPSSKSTSGGTAALGCLVKDYFPEPVTVSWNSGALTSGVHTFPAVLQSSGLYSLSSVVTVPSSSLGTQTYICNVNHKPSNTKVDKKVEPKSCDKTHTCPPCPAPEAAGAPSVFLFPPKPKDTLMISRTPEVTCVVVDVSHEDPEVKFNWYVDGVEVHNAKTKPREEQYNSTYRVVSVLTVLHQDWLNGKEYKCKVSNKALPAPIEKTISKAKGQPREPQVYTLPPSREEMTKNQVSLTCLVKGFYPSDIAVEWESNGQPENNYKTTPPVLDSDGSFFLYSKLTVDKSRWQQGNVFSCSVMHEALHNHYTQKSLSCSPGK chain 2: not shown |  |  |  |  | Kd (PDGF-BB): 0.014 nM
OG1448 (antibody) chain 1: LVVTPPGPELVLNVSSTFVLTCSGSAPVVWERMSQEPPQEMAKAQDGTFSSVLTLTNLTGLDTGEYFCTHNDSRGLETDERKRLYIFVPDPTVGFLPNDAEELFIFLTEITEITIPCRVTDPQLVVTLHEKKGDVALPVPYDHQRGFSGIFEDRSYICKTTIGDREVDSDAYYVYRLQVSSINVSVNAVQTVVRQGENITLMCIVIGNEVVNFEWTYPRKESGRLVEPVTDFLLDMPYHIRSILHIPSAELEDSGTYTCNVTESVNDHQDEKAINITVVESGGGGGSGGGGSEVQLVESGGGLVQPGGSLRLSCAASGYDFTHYGMNWVRQAPGKGLEWVGWINTYTGEPTYAADFKRRFTFSLDTSKSTAYLQMNSLRAEDTAVYYCAKYPYYYGTSHWYFDVWGQGTLVTVSSASTKGPSVFPLAPSSKSTSGGTAALGCLVKDYFPEPVTVSWNSGALTSGVHTFPAVLQSSGLYSLSSVVTVPSSSLGTQTYICNVNHKPSNTKVDKKVEPKSCDKTHTCPPCPAPEAAGAPSVFLFPPKPKDTLMISRTPEVTCVVVDVSHEDPEVKFNWYVDGVEVHNAKTKPREEQYNSTYRVVSVLTVLHQDWLNGKEYKCKVSNKALPAPIEKTISKAKGQPREPQVYTLPPSREEMTKNQVSLTCLVKGFYPSDIAVEWESNGQPENNYKTTPPVLDSDGSFFLYSKLTVDKSRWQQGNVFSCSVMHEALHNHYTQKSLSCSPGK chain 2: not shown | 8.5 | 0.0051 |  |  | IC50 (VEGFA-165 [3]): 10.1 nM
OG1321 (antibody) chain 1: LVVTPPGPELVLNVSSTFVLTCSGSAPVVWERMSQEPPQEMAKAQDGTFSSVLTLTNLTGLDTGEYFCTHNDSRGLETDERKRLYIFVPDPTVGFLPNDAEELFIFLTEITEITIPCRVTDPQLVVTLHEKKGDVALPVPYDHQRGFSGIFEDRSYICKTTIGDREVDSDAYYVYRLQVSSINVSVNAVQTVVRQGENITLMCIVIGNEVVNFEWTYPRKESGRLVEPVTDFLLDMPYHIRSILHIPSAELEDSGTYTCNVTESVNDHQDEKAINITVVESGGGGGSGGGGSEVQLVESGGGLVQPGGSLRLSCAASGYDFTHYGMNWVRQAPGKGLEWVGWINTYTGEPTYAADFKRRFTFSLDTSKSTAYLQMNSLRAEDTAVYYCAKYPYYYGTSHWYFDVWGQGTLVTVSSASTKGPSVFPLAPSSKSTSGGTAALGCLVKDYFPEPVTVSWNSGALTSGVHTFPAVLQSSGLYSLSSVVTVPSSSLGTQTYICNVNHKPSNTKVDKKVEPKSCDKTHTCPPCPAPEAAGAPSVFLFPPKPKDTLMISRTPEVTCVVVDVSHEDPEVKFNWYVDGVEVHNAKTKPREEQYNSTYRVVSVLTVLHQDWLNGKEYKCKVSNKALPAPIEKTISKAKGQPREPQVYTLPPSREEMTKNQVSLTCLVKGFYPSDIAVEWESNGQPENNYKTTPPVLDSDGSFFLYSKLTVDKSRWQQGNVFSCSVMHEALHNHYTQKSLSCSPGK chain 2: not shown | 12.5 | 0.0098 |  |  | 
